Here are results for one substance from US20180010135.

For this data set, the system named is phiC31 integrase (Streptomyces phage phiC31?). The experiment in a line: cell_activity. The settings on record: in E. coli, 1% L-arabinose, 32 C, 60-120 min; intramolecular attB x attP recombination giving minicircle.

Consider “phiC31 attB x attP sites flanking expression cassette (pBAD.phiC31.RHB)”, for which the activity (% recombination) is > 97.
